From the Human Domainome abundance scans (Beltran et al. 2025)
± gives the uncertainty stated by the source.

assay: abundance fitness (aPCA) (normalised: wild type 0, dead -1); higher = more abundant; growth selection in yeast, the domain comes from the species named; settings: Saccharomyces cerevisiae (strain ATCC 204508 / S288c)

Substance	abundance fitness
E3 ubiquitin-protein ligase RSP5 E332I, P39940	-0.225 ± 0.087
E3 ubiquitin-protein ligase RSP5 E332K, P39940	-0.046 ± 0.064
E3 ubiquitin-protein ligase RSP5 E332L, P39940	-0.459 ± 0.051
E3 ubiquitin-protein ligase RSP5 E332M, P39940	-0.093 ± 0.069
E3 ubiquitin-protein ligase RSP5 E332P, P39940	-0.128 ± 0.057
E3 ubiquitin-protein ligase RSP5 E332Q, P39940	-0.359 ± 0.061
E3 ubiquitin-protein ligase RSP5 E332R, P39940	-0.36 ± 0.043
E3 ubiquitin-protein ligase RSP5 E332S, P39940	-0.179 ± 0.053
E3 ubiquitin-protein ligase RSP5 E332T, P39940	-0.14 ± 0.069
E3 ubiquitin-protein ligase RSP5 E332V, P39940	-0.07 ± 0.047
E3 ubiquitin-protein ligase RSP5 E332W, P39940	-0.493 ± 0.046
E3 ubiquitin-protein ligase RSP5 E332Y, P39940	-0.184 ± 0.066
E3 ubiquitin-protein ligase RSP5 E338A, P39940	-0.333 ± 0.056
E3 ubiquitin-protein ligase RSP5 E338C, P39940	-0.476 ± 0.16
E3 ubiquitin-protein ligase RSP5 E338D, P39940	-0.022 ± 0.13
E3 ubiquitin-protein ligase RSP5 E338F, P39940	-0.73 ± 0.14
E3 ubiquitin-protein ligase RSP5 E338G, P39940	-0.454 ± 0.045
E3 ubiquitin-protein ligase RSP5 E338H, P39940	-0.349 ± 0.1
E3 ubiquitin-protein ligase RSP5 E338K, P39940	-0.463 ± 0.049
E3 ubiquitin-protein ligase RSP5 E338L, P39940	-0.499 ± 0.044
E3 ubiquitin-protein ligase RSP5 E338M, P39940	-0.402 ± 0.047
E3 ubiquitin-protein ligase RSP5 E338N, P39940	-0.501 ± 0.09
E3 ubiquitin-protein ligase RSP5 E338P, P39940	-0.874 ± 0.083
E3 ubiquitin-protein ligase RSP5 E338Q, P39940	-0.027 ± 0.065
E3 ubiquitin-protein ligase RSP5 E338R, P39940	-0.626 ± 0.045
E3 ubiquitin-protein ligase RSP5 E338S, P39940	-0.19 ± 0.046

Substance	abundance fitness
E3 ubiquitin-protein ligase RSP5 E338V, P39940	-0.278 ± 0.053
E3 ubiquitin-protein ligase RSP5 E338W, P39940	-0.978 ± 0.11
E3 ubiquitin-protein ligase RSP5 E338Y, P39940	-0.632 ± 0.075
E3 ubiquitin-protein ligase RSP5 E344A, P39940	-0.144 ± 0.045
E3 ubiquitin-protein ligase RSP5 E344C, P39940	-0.264 ± 0.097
E3 ubiquitin-protein ligase RSP5 E344D, P39940	0.149 ± 0.087
E3 ubiquitin-protein ligase RSP5 E344F, P39940	-0.309 ± 0.072
E3 ubiquitin-protein ligase RSP5 E344G, P39940	-0.038 ± 0.045
E3 ubiquitin-protein ligase RSP5 E344H, P39940	0.116 ± 0.16
E3 ubiquitin-protein ligase RSP5 E344I, P39940	-0.215 ± 0.091
E3 ubiquitin-protein ligase RSP5 E344K, P39940	-0.222 ± 0.063
E3 ubiquitin-protein ligase RSP5 E344L, P39940	-0.31 ± 0.047
E3 ubiquitin-protein ligase RSP5 E344M, P39940	-0.103 ± 0.06
E3 ubiquitin-protein ligase RSP5 E344N, P39940	-0.032 ± 0.081
E3 ubiquitin-protein ligase RSP5 E344P, P39940	-0.428 ± 0.071
E3 ubiquitin-protein ligase RSP5 E344Q, P39940	-0.081 ± 0.053
E3 ubiquitin-protein ligase RSP5 E344R, P39940	-0.256 ± 0.047
E3 ubiquitin-protein ligase RSP5 E344S, P39940	-0.168 ± 0.048
E3 ubiquitin-protein ligase RSP5 E344T, P39940	-0.088 ± 0.051
E3 ubiquitin-protein ligase RSP5 E344V, P39940	-0.308 ± 0.054
E3 ubiquitin-protein ligase RSP5 E344W, P39940	-0.338 ± 0.046
E3 ubiquitin-protein ligase RSP5 F341A, P39940	-0.072 ± 0.049
E3 ubiquitin-protein ligase RSP5 F341C, P39940	0.051 ± 0.069
E3 ubiquitin-protein ligase RSP5 F341E, P39940	0.068 ± 0.064
E3 ubiquitin-protein ligase RSP5 F341G, P39940	-0.284 ± 0.044
E3 ubiquitin-protein ligase RSP5 F341I, P39940	-0.027 ± 0.092
